The assay has as its target T1, EV71-VP1-His (enterovirus 71 (EV71), UniProt Q66478 566-862, RED-tris-NTA dye on the His tag (in the MST only)).
T1 chain: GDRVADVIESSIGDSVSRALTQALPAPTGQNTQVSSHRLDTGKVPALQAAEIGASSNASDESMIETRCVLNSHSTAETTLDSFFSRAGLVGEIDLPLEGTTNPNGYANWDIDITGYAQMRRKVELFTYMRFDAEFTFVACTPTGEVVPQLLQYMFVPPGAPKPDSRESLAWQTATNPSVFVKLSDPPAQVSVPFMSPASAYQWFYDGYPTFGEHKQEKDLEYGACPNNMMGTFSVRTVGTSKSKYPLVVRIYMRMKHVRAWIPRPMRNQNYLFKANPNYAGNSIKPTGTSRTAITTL
Kind of assay: MST.

What is called Kd is the constant that tells how readily two partners part at equilibrium. Read a high Kd as lower affinity.

B1: ZYG11B 1–58-GST (domain or fragment)
chain: MPEDQAGAAMEEASPYSLLDICLNFLTTHLEKFCSARQDGTLCLQEPGVFPQEVADRL
B1 yielded a Kd of 5.55 µM. In other words, the single-digit micromolar range.

Values taken from article PMC11998487 (2025).
